Reference: PMC6784197

How the values were obtained:
<EGFR> Hw-La = experiment: SPR; monovalent (affinity) set-up: antibody captured via anti-hFc on CM5 chip, huEGFR ECD as analyte 19-300 nM; Biacore T200, HBS-P+ pH 7.4, 25 °C; 1:1 Langmuir model
<EGFR> Hb-Lw = experiment: as above
<EGFR> Ha-Lw = experiment: as above
<Her2/neu> Hg-Lw = experiment: SPR; monovalent (affinity) set-up: antibody captured via anti-hFc on CM5 chip, huHer2 ECD as analyte 19-300 nM; Biacore T200, HBS-P+ pH 7.4, 25 °C; 1:1 Langmuir model
<Her2/neu> Hg-Lw, sequence (heavy, as listed by the source, chain 1 of 2): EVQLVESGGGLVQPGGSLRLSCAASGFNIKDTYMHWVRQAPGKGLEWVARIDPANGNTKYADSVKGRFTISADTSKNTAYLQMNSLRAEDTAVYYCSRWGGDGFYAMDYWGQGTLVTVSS
<Her2/neu> Hg-Lw, sequence (light, as listed by the source, chain 2 of 2): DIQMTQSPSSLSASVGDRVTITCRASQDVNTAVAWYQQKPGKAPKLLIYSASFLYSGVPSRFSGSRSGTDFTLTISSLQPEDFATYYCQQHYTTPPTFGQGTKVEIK

<Her2/neu> Hb-Lw = experiment: as above
<Her2/neu> Hb-Lw, sequence (heavy, as listed by the source, chain 1 of 2): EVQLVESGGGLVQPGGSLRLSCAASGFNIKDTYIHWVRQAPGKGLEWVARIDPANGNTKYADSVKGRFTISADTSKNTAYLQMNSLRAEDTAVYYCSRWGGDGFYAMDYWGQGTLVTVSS

<Her2/neu> Hg-Lg = experiment: as above
<Her2/neu> Hg-Lg, sequence (light, as listed by the source, chain 2 of 2): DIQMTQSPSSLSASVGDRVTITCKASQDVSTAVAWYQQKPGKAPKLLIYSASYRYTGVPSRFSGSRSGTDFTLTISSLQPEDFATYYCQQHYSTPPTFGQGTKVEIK

<Her2/neu> Ha-Lw = experiment: as above
<Her2/neu> Ha-Lw, sequence (heavy, as listed by the source, chain 1 of 2): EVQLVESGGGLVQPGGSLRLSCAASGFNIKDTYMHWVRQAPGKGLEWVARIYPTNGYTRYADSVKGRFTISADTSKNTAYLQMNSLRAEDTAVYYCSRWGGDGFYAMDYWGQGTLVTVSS

Row | Substance | Kd (<EGFR> Hw-La) | Kd (<EGFR> Hb-Lw) | Kd (<EGFR> Ha-Lw) | Kd (<Her2/neu> Hg-Lw) | Kd (<Her2/neu> Hb-Lw) | Kd (<Her2/neu> Hg-Lg) | Kd (<Her2/neu> Ha-Lw)
1 | huEGFR ECD (from UniProt P00533 25-645) (domain or fragment) | 3.5 nM | 0.66 nM | 0.73 nM | – | – | – | –
2 | huHer2 ECD (from UniProt P04626 23-652) (domain or fragment) | – | – | – | 340 nM | 390 nM | 390 nM | 2.1 nM
